Residue numbers refer to the chain shown, from its start.
B1: SEQ ID NO 7 (designed binder, not shown: small tags and cut ends)
chain: MLPAPKNLVVSDVTEDSARLSWQGVARAFDSFLITYREQIFAGEVIVLTVPGSERSYDLTGLKPGTEYPVWIQGVKGGSPSAPLSAEFTT
B2: SEQ ID NO 84 (designed binder, not shown: small tags and cut ends)
chain: B1 chain with D12R, L33S, T35L, R37L, Q39L, I40T, F41P, A42K, V45A
B3: SEQ ID NO 81 (designed binder, not shown: small tags and cut ends)
chain: B1 chain with D12R, R37V, Q39L, I40R, F41H, A42L, V45A
B4: SEQ ID NO 70 (designed binder, not shown: small tags and cut ends)
chain: B1 chain with D12R, S79D, P80L, A82N, E87I
B5: SEQ ID NO 94 (designed binder, not shown: small tags and cut ends)
chain: B1 chain with D12E, E87I
B6: SEQ ID NO 73 (designed binder, not shown: small tags and cut ends)
chain: B1 chain with D12E, F88S
B7: SEQ ID NO 59 (designed binder, not shown: small tags and cut ends)
chain: MLPAPKNLVVSRVTEDSARLSWTAPDAAFDSFVYNEVHWIGEAIVLTVPGSERSYDLTGLKPGTEYFVGIYGVKGGHWSKPLSAIFTT
B8: SEQ ID NO 89 (designed binder, not shown: small tags and cut ends)
chain: MLPAPENLVVSRVTEDSARLSWTAPDAAFDSFWIEYYEGVIQGEAIVLTVPGSERSYDLTGLKPGTEYFVAIWGVKGGKWSVPLSAIFTT
B9: SEQ ID NO 97 (designed binder, not shown: small tags and cut ends)
chain: MLPAPKNLVVSRVTEDSARLSWTAPDAAFDSFHIWYEEETTIGEAIYLHVPGSERSYDLTGLKPGTEYEVHITGVKGGPYSRPLFANFTT
B10: SEQ ID NO 87 (designed binder, not shown: small tags and cut ends)
chain: MLPAPKNLVVSRVTEDSARLSWTAPDAAFDSFAIEYTEFLYSGEAIVLTVPGSERSYDLTGLKPGTEYGVPINGVKGGFVSPPLSAIVTT
B11: SEQ ID NO 65 (designed binder, not shown: small tags and cut ends)
chain: MLPAPKNLVVSRVTKDSARLSWTAPDAAFDSFPIAYAEPRPDGEAIVLTVPGSERSYDLTGLKPGTEYSVLIHGVKGGLLSSPLSAIFTT
B12: SEQ ID NO 77 (designed binder, not shown: small tags and cut ends)
chain: B11 chain with K15E
B13: SEQ ID NO 99 (designed binder, not shown: small tags and cut ends)
chain: B11 chain with K15E, P33F, A35P, R40S, D42T, L79H, S82D, A86V
B14: SEQ ID NO 83 (designed binder, not shown: small tags and cut ends)
chain: B11 chain with K15E, F88S
B15: SEQ ID NO 12 (designed binder, not shown: small tags and cut ends)
chain: B11 chain with K15E, P33F, A35P, R40S, D42T, L79H, S82D, F88S
B16: SEQ ID NO 68 (designed binder, not shown: small tags and cut ends)
chain: B11 chain with K15E, P33I, A35P, P39V, L79H, S82D, F88S
B17: SEQ ID NO 82 (designed binder, not shown: small tags and cut ends)
chain: B11 chain with K15E, P33L, A35P, P39T, R40S, D42S, L79D, L80Y
B18: SEQ ID NO 66 (designed binder, not shown: small tags and cut ends)
chain: MLPAPKNLVVSRVTEDSARLSWTAPDAAFDSFTIDYDEPRSPGEAIVLTVPGSERSYDLTGLKPGTEYRVFIWGIKGGDTSFPLSAIFTT
B19: SEQ ID NO 61 (designed binder, not shown: small tags and cut ends)
chain: MLPAPKNLVVSRVTEDSARLSWTAPDAAFDSFQIVYSELWIKGEAIVLTVPGSERSYDLTGLKPGTEYQVPIPGVKGGRNSFPLSAIFTT
B20: SEQ ID NO 64 (designed binder, not shown: small tags and cut ends)
chain: B11 chain with K15E, P33Y, A35V, R40I, D42N, L79R, L80N, S82D
B21: SEQ ID NO 96 (designed binder, not shown: small tags and cut ends)
chain: MSLPAPKNLVVSRVTEDSARLSWTAPDAAFDSFPIAYLEVFYEGEAIVLTVPGSERSYDLTGLKPGTEYQVPIEGVKGGAMSLPLSAIFTT
B22: SEQ ID NO 76 (designed binder, not shown: small tags and cut ends)
chain: MLPAPKNLVVSRVTEDSARLSWTAPDAAFDSFTIEYYENIGIGEAIVLTVPGSERSYDLTGLKPGTEYSVPIVGVKGGPYSHPLSAIFTT
B23: SEQ ID NO 79 (designed binder, not shown: small tags and cut ends)
chain: B10 chain with A33V, F39R, L40F, Y41W, G69S, N73D, F79Q, V80C, P82T, V88F
B24: SEQ ID NO 85 (designed binder, not shown: small tags and cut ends)
chain: B22 chain with T33I, Y37F, N39P, G41P, S69A, P71N, V73Y, P79Y, Y80L
B25: SEQ ID NO 88 (designed binder, not shown: small tags and cut ends)
chain: MLPAPKNLVVSRVTEDSARLSWTAPDAAFDSFPIKYREVLRCGEAIVLTVPGSERSYDLTGLKPGTEYTVPITGVKGGFGSSPLSAIFTT
B26: SEQ ID NO 93 (designed binder, not shown: small tags and cut ends)
chain: MLPAPKNLVVSRVTEDSARLSWTAPDAAFDSFAIEYYEPVPAGEAIYLDVPGSERSYDLTGLKPGTEYDVTIYGVKGGYYSHPLFASFTT
B27: SEQ ID NO 75 (designed binder, not shown: small tags and cut ends)
chain: MLPAPKNLVVSRVTEDSARLSWTAPDAAFDSFTISYGEEALIGEAIYLRVPGSERSYDLTGLKPGTEYYVHIEGVKGGSWSQPLAAAFTT
B28: SEQ ID NO 80 (designed binder, not shown: small tags and cut ends)
chain: MLPAPKNLVVSRVTEDSARLSWTAPDAAFDSFWIDYEEEGVIGEAIYLHVPGSERSYDLTGLKPGTEYVVKIHGVKGGHPSHPLVAVFTT
B29: SEQ ID NO 67 (designed binder, not shown: small tags and cut ends)
chain: MLPAPKNLVVSRVTEDSARLSWTAPDAAFDSFTILYAEQAQFGEAIVLTVPGSERSYDLTGLKPGTEYPITGVKGGTRSGPLSAISTT
B30: SEQ ID NO 13 (designed binder, not shown: small tags and cut ends)
chain: MLPAPKNLVVSRVTEDSARLSWTAPDAAFDSFLIAYPEDGFRGEAIVLTVPGSERSYDLTGLKPGTEYPVPILGVKGGGGSGPLSAIFTT
B31: SEQ ID NO 63 (designed binder, not shown: small tags and cut ends)
chain: MLPAPKNLVVSRVTEDSARLSWTAPDAAFDSFCISYYERMGRGEAIVLTVPGSERSYDLTGLKPGTEYMVYIFGVKGGLNSLPLSAIFTT
B32: SEQ ID NO 6 (designed binder, not shown: small tags and cut ends)
chain: MLPAPKNLVVSRVTEDSARLSWTAPDAAFDSFPIIYMETFSRGEAIVLTVPGSERSYDLTGLKPGTEYRVPIGGVKGGSSSCPLSAIFTT
B33: SEQ ID NO 62 (designed binder, not shown: small tags and cut ends)
chain: B32 chain with P33K, I35R, M37T, F40R, R42I, R69C, S79D, C82W, F88S
B34: SEQ ID NO 10 (designed binder, not shown: small tags and cut ends)
chain: B30 chain with L33K, P37I, D39T, G40A, F41T, P69V, L73P, G79N, G80T, G82S
B35: SEQ ID NO 72 (designed binder, not shown: small tags and cut ends)
chain: MLPAPKNLVVSRVTEDSARLSWTAPDAAFDSFTIGYREWYWYGEAIVLTVPGSERSYDLTGLKPGTEYNVPISGVKGGLDSFPLSAIFTT
B36: SEQ ID NO 56 (designed binder, not shown: small tags and cut ends)
chain: MLPAPKNLVVSRVTEDSARLSWTAPDAAFDSFSIGYVELVLLGEAIVLTVPGSERSYDLTGLKPGTEYDVLIPGVKGGSLSRPLSAIFTT
B37: SEQ ID NO 71 (designed binder, not shown: small tags and cut ends)
chain: B36 chain with S33P, G35S, V37L, V40S, L42Y, D69P, L71G, P73A, S79V, L80V
B38: SEQ ID NO 57 (designed binder, not shown: small tags and cut ends)
chain: B36 chain with S33A, G35P, V37A, V40S, L41R, L42N, D69T, P73H, S79C, R82D
B39: SEQ ID NO 74 (designed binder, not shown: small tags and cut ends)
chain: B36 chain with G35T, V37L, L39W, V40W, L41N, D69M, L71T, S79M, L80S, R82Y
B40: SEQ ID NO 90 (designed binder, not shown: small tags and cut ends)
chain: MLPAPKNLVVSRVTEDSARLSWQGVARAFDSFLITYREQIFAGEVIVLTVPGSERSYDLTGLKPGTEYPVWIQGVKGGSPSAEFTT
B41: SEQ ID NO 1 (designed binder, not shown: small tags and cut ends)
chain: MLPAPKNLVVSRVTEDSARLSWTAPDAAFDSFPITYIEAVVLGEAIVLTVPGSERSYDLTGLKPGTEYPVGISGVKGGHNSMPLSAIFTT
B42: SEQ ID NO 78 (designed binder, not shown: small tags and cut ends)
chain: MLPAPKNLVVSRVTEDSARLSWTAPDAAFDSFGIGYYEHKRFGEAIQLSVPGSERSYDLTGLKPGTEYEVDIEGVKGGVLSWPLFAEFTT

Target: human serum albumin (human) (UniProt P02768)
Sequence (P02768 25-609 limits assumed): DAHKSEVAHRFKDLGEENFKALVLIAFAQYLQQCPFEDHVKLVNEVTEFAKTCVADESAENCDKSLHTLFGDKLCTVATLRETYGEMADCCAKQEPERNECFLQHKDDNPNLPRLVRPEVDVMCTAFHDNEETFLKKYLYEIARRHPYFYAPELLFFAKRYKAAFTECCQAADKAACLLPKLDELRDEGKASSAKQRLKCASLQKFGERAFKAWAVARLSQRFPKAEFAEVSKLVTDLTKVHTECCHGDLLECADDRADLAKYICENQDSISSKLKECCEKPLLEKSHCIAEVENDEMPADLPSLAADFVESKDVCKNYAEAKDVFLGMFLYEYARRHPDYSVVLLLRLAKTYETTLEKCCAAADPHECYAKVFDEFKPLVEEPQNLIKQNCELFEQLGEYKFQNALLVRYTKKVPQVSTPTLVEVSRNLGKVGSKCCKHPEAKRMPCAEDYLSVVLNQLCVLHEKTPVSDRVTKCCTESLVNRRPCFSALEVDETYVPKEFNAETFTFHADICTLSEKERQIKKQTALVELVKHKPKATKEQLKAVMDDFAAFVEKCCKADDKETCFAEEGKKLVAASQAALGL
Assay: primary solution ELISA screen

RLU [RLU] | Binder
26100 | B1
127000 | B2
9850 | B3
94800 | B4
87200 | B5
20200 | B6
16400 | B7
6500 | B8
6500 | B9
3650 | B10
16000 | B11
10400 | B12
9850 | B13
111000 | B14
49000 | B15
38400 | B16
14800 | B17
8100 | B18
13600 | B19
6000 | B20
15200 | B21

RLU [RLU] | Binder
16300 | B22
6000 | B23
6350 | B24
24200 | B25
4750 | B26
3700 | B27
33600 | B28
14200 | B29
24600 | B30
5700 | B31
7300 | B32
8100 | B33
29300 | B34
8950 | B35
19400 | B36
27500 | B37
38800 | B38
14600 | B39
12400 | B40
15800 | B41
9350 | B42

From patent US20220332795A1
